For series [1], the target named is HIS‐NF‐YB1 (rice (Oryza sativa L.)) (UniProt Q6Z348).
The next series addresses LGF2‐pBT. The experiment in a line: two-hybrid; bacterial two-hybrid (BacterioMatch II) in E. coli XL1‐Blue MRF′; NF‐YB1‐pTRG and NF‐YCs‐pBT; growth on M9/+Cm/+Ter/+3‐AT/+Strep/‐HIS against M9/+Cm/+Ter; intensity = ratio (%) of colony numbers.
In another series the target is T1, HIS-NF-YB1 (Oryza sativa L. (rice; cultivar not …, UniProt Q6Z348 1-186).
T1 sequence: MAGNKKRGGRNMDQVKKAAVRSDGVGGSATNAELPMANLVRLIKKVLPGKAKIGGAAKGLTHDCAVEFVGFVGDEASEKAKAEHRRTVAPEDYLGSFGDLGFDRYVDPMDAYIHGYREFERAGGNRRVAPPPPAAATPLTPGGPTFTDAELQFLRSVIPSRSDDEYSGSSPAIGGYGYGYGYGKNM
The experiment in a line: EMSA; EMSA: Beyotime EMSA/Gel-shift binding buffer (composition and pH not given), 10 uL, 2 nmol biotin probe, 5 nmol protein, 20 min preincubation + 20 min at 25 C. The note with it: protein: recombinant; tags: N-terminal His (pET28a); label: biotin; blunt. A general note: In EMSA bound probe runs differently from free probe, usually more slowly.

In series [2] the target is GST‐NF‐YC12 (rice (Oryza sativa L.)).
Series [3] deals with NF‐YC12‐pBT (rice (Oryza sativa L.)). The experiment in a line: two-hybrid; bacterial two-hybrid (BacterioMatch II) in E. coli XL1‐Blue MRF′; NF‐YB1‐pTRG and NF‐YCs‐pBT; growth on M9/+Cm/+Ter/+3‐AT/+Strep/‐HIS against M9/+Cm/+Ter; intensity = ratio (%) of colony numbers.

The molecule HIS‐bHLH144‐FLAG (natural protein) showed a half-life of HIS‐NF‐YB1 in a cell-free degradation assay with GST‐NF‐YC12 and HIS‐bHLH144‐FLAG added (heterotrimer); around 15 min for HIS‐NF‐YB1 alone in series [1] of 40 min.

For the molecule Gal11‐pTRG, the interaction intensity (ratio of colony numbers on selective and non-selective medium) in the series with LGF2‐pBT is 33.8%.

B1: Wx promoter probe 5 (dsDNA)
DNA 1: AGATCATATCGTCTCCAGACTCAAGTGCACGTTGATCGTTCGCTCACTGCTTCATCGATC
DNA 2: GATCGATGAAGCAGTGAGCGAACGATCAACGTGCACTTGAGTCTGGAGACGATATGATCT
B1: the binding result with HIS-NF-YB1 is given as “no binding”.

B2: Wx promoter probe 3 (dsDNA)
DNA 1: CGTAATTCCAAGTTCTTTTTTTTTTGTCAGCACGTACAAGCAGCCGCTAGCCTCGCCCTG
DNA 2: CAGGGCGAGGCTAGCGGCTGCTTGTACGTGCTGACAAAAAAAAAAGAACTTGGAATTACG
With B2, the binding result with HIS-NF-YB1 was “no binding”.

B3: Wx promoter probe 4 (dsDNA)
DNA 1: CAACGTGCCAACGTACGCACGCTAACGTGAGTCATGTAGCGTAATTCCAAGTTCTTTTTT
DNA 2: AAAAAAGAACTTGGAATTACGCTACATGACTCACGTTAGCGTGCGTACGTTGGCACGTTG
B3: the binding result with HIS-NF-YB1 is recorded as “no binding”.

B4: Wx promoter probe 2 (dsDNA)
DNA 1: CAGGCACTCAGCTCGCTGCTGGTCCCGCACGTCGCCACACGATCGACGTACGCACGCGAG
DNA 2: CTCGCGTGCGTACGTCGATCGTGTGGCGACGTGCGGGACCAGCAGCGAGCTGAGTGCCTG
On to B4, for which the binding result in the series with HIS-NF-YB1 is “no binding”.

B5: HIS‐NF‐YB1 (natural protein)
chain: T1 sequence
B5 yielded a half-life of HIS‐NF‐YB1 in a cell-free degradation assay (total protein extract of 10 DAG rice seedlings) with GST‐NF‐YC12 added; around 15 min for HIS‐NF‐YB1 alone in series [2] of 30 min.

B6: NF‐YB1‐pTRG (natural protein)
chain: T1 sequence
On to B6, for which the interaction intensity (ratio of colony numbers on selective and non-selective medium) in series [3] came to 63.7%.

For the origin of these results see publication PMC6576074, “NF‐YB1‐YC12‐bHLH144 complex directly activates Wx to regulate grain quality in rice (Oryza sativa L.)”.
